Measurements: patent US20200270588A1, “GLUCOSYL TRANSFERASE POLYPEPTIDES AND METHODS OF USE” (Syngenta Participations AG, priority 2017, published 2020)

Experiment: UDP luminescence plate assay of E. coli extracts, saturation mutants of SEQ ID NO: 1, herbicide V
Type: biochemical, Zea mays
Details: improvement factor relative to w/t bx9 = 1.0, rounded to nearest 0.5; extract activity basis; compound V
Experimental: Competent BL21 (DE3) cells are transformed as in the foregoing examples and, following seed culturing, grown and autoinduced in plates in a 0.5-1 ml volume of autoinduction medium containing 50 ug/ml kanamycin. Plates are incubated at 37° C. and shaken at 900 rpm. Growth is monitored by taking 20 ul aliquots, diluting 10 fold into flat-bottomed 96 well microtiter plates and reading OD600n at t=0, 1, 2, 2½ and 3 hours if necessary. At a (corrected) OD600 nm˜0.2, plates are transferred to 20° C. and shaken overnight at 900 rpm in a Jencons VWR plate incubator. After ˜18-20 h the final OD600 readings are recorded and the plates centrifuged at 4600 rpm (bench top centrifuge) for 10 min at 4° C. The supernatant is discarded and the pellets then washed with 0.25 ml PBS by repeat centrifugation and removal of supernatant before freezing cell pellets at −80° C. To prepare extracts, plates are allowed to thaw for 30 min and then pellets are resuspended in 0.25 ml of a suitable lysis buffer (for example—50 mM Tris HCL buffer at pH 8.0, 5% glycerol containing 50 mM NaCl and lysonase) mixed, incubated at room temperature for a sufficient time for lysis to be near complete and then centrifuged to remove cell debris and 100 ul of supernatant extract removed to a 96 well V-shaped well plate and stored on ice prior to assay.
Optionally plate assays are stopped with brief heating to 95 C before returning to ice and addition of UDP-Glo detection reagent followed by incubation at lab temperature. […] In addition a UDP standard curve is run alongside each set of plate tests.
Making use of the ELISA assay it is then possible to calculate a specific activity (e.g. in Relative Luminescence Units (RLU)/min/ug bx protein) based upon the amount of each mutant bx9 polypeptide expressed in each well. […] The specific activity of the various test mutant extracts on the same plate are then expressed as a fraction of the specific activity of the w/t bx9 and thus the ‘improvement factor’ versus the w/t expressed as a decimal where, for example, ‘0.5’ means half the specific activity of the wild type and 2.0 means twice the specific activity of the wild type. However, as will be readily apparent to the skilled man, particularly in cases where the UDP assay signal was low (with poor signal to noise versus the background) and/or the ELISA measurement of bx protein also low such a method is prone to generate spurious high specific activity numbers and uncertain numbers.

Molecule | Preferred amino acid substitutions and (IF) based on RLU/min/ul
Q22M: bx9 SEQ ID NO:1 mutant (protein, Zea mays) MASSRTGAGAGGRVVVFPFPFMGHFNPVMRLARALHARGLAITVFHSGALDPADYPADYRFVPVTVEADPKLLASEDIAAIVTTLNASCDAPFRARLSALLAAEGRDSVRCVFTDVSWNAVLTASSDLGVPALGMMTASAASLRDYMAYRTLIDKGYLPVKEERKEDPVPELPPYLVKDLLRVDTSDLEEFAELLARTVTAARRASGLIFNTFPLIETDTLAEIHKALSVPVFAVAPLNKLVPTATASLHGVVQADRGCLQWLDTQQPGSVLYVSFGSMAAMDPHEFVELAWGLADSKRPFVWVVRPNLIRGFESGALPDGVEDEVRGRGIVVAWAPQEEVLAHPAVGGFLTHNGWNSTVEAISEGVPMVCCPRHGDQFGNMRYVCDVWKVGTELVGEQLERGQVKAAIDRLFGTKEGEEIKERMKEFKIAAAKGIGIGVDVDETASPRTDLTDLVDLIKSF | H,P,M(1.0)
E76M: bx9 SEQ ID NO:1 mutant (protein, Zea mays) MASSRTGAGAGGRVVVFPFPFQGHFNPVMRLARALHARGLAITVFHSGALDPADYPADYRFVPVTVEADPKLLASMDIAAIVTTLNASCDAPFRARLSALLAAEGRDSVRCVFTDVSWNAVLTASSDLGVPALGMMTASAASLRDYMAYRTLIDKGYLPVKEERKEDPVPELPPYLVKDLLRVDTSDLEEFAELLARTVTAARRASGLIFNTFPLIETDTLAEIHKALSVPVFAVAPLNKLVPTATASLHGVVQADRGCLQWLDTQQPGSVLYVSFGSMAAMDPHEFVELAWGLADSKRPFVWVVRPNLIRGFESGALPDGVEDEVRGRGIVVAWAPQEEVLAHPAVGGFLTHNGWNSTVEAISEGVPMVCCPRHGDQFGNMRYVCDVWKVGTELVGEQLERGQVKAAIDRLFGTKEGEEIKERMKEFKIAAAKGIGIGVDVDETASPRTDLTDLVDLIKSF | M(1.0)
A79G: bx9 SEQ ID NO:1 mutant (protein, Zea mays) MASSRTGAGAGGRVVVFPFPFQGHFNPVMRLARALHARGLAITVFHSGALDPADYPADYRFVPVTVEADPKLLASEDIGAIVTTLNASCDAPFRARLSALLAAEGRDSVRCVFTDVSWNAVLTASSDLGVPALGMMTASAASLRDYMAYRTLIDKGYLPVKEERKEDPVPELPPYLVKDLLRVDTSDLEEFAELLARTVTAARRASGLIFNTFPLIETDTLAEIHKALSVPVFAVAPLNKLVPTATASLHGVVQADRGCLQWLDTQQPGSVLYVSFGSMAAMDPHEFVELAWGLADSKRPFVWVVRPNLIRGFESGALPDGVEDEVRGRGIVVAWAPQEEVLAHPAVGGFLTHNGWNSTVEAISEGVPMVCCPRHGDQFGNMRYVCDVWKVGTELVGEQLERGQVKAAIDRLFGTKEGEEIKERMKEFKIAAAKGIGIGVDVDETASPRTDLTDLVDLIKSF | 1.5
A79E: bx9 SEQ ID NO:1 mutant (protein, Zea mays) MASSRTGAGAGGRVVVFPFPFQGHFNPVMRLARALHARGLAITVFHSGALDPADYPADYRFVPVTVEADPKLLASEDIEAIVTTLNASCDAPFRARLSALLAAEGRDSVRCVFTDVSWNAVLTASSDLGVPALGMMTASAASLRDYMAYRTLIDKGYLPVKEERKEDPVPELPPYLVKDLLRVDTSDLEEFAELLARTVTAARRASGLIFNTFPLIETDTLAEIHKALSVPVFAVAPLNKLVPTATASLHGVVQADRGCLQWLDTQQPGSVLYVSFGSMAAMDPHEFVELAWGLADSKRPFVWVVRPNLIRGFESGALPDGVEDEVRGRGIVVAWAPQEEVLAHPAVGGFLTHNGWNSTVEAISEGVPMVCCPRHGDQFGNMRYVCDVWKVGTELVGEQLERGQVKAAIDRLFGTKEGEEIKERMKEFKIAAAKGIGIGVDVDETASPRTDLTDLVDLIKSF | 1.5
A79S: bx9 SEQ ID NO:1 mutant (protein, Zea mays) MASSRTGAGAGGRVVVFPFPFQGHFNPVMRLARALHARGLAITVFHSGALDPADYPADYRFVPVTVEADPKLLASEDISAIVTTLNASCDAPFRARLSALLAAEGRDSVRCVFTDVSWNAVLTASSDLGVPALGMMTASAASLRDYMAYRTLIDKGYLPVKEERKEDPVPELPPYLVKDLLRVDTSDLEEFAELLARTVTAARRASGLIFNTFPLIETDTLAEIHKALSVPVFAVAPLNKLVPTATASLHGVVQADRGCLQWLDTQQPGSVLYVSFGSMAAMDPHEFVELAWGLADSKRPFVWVVRPNLIRGFESGALPDGVEDEVRGRGIVVAWAPQEEVLAHPAVGGFLTHNGWNSTVEAISEGVPMVCCPRHGDQFGNMRYVCDVWKVGTELVGEQLERGQVKAAIDRLFGTKEGEEIKERMKEFKIAAAKGIGIGVDVDETASPRTDLTDLVDLIKSF | 1.0
A79Q: bx9 SEQ ID NO:1 mutant (protein, Zea mays) MASSRTGAGAGGRVVVFPFPFQGHFNPVMRLARALHARGLAITVFHSGALDPADYPADYRFVPVTVEADPKLLASEDIQAIVTTLNASCDAPFRARLSALLAAEGRDSVRCVFTDVSWNAVLTASSDLGVPALGMMTASAASLRDYMAYRTLIDKGYLPVKEERKEDPVPELPPYLVKDLLRVDTSDLEEFAELLARTVTAARRASGLIFNTFPLIETDTLAEIHKALSVPVFAVAPLNKLVPTATASLHGVVQADRGCLQWLDTQQPGSVLYVSFGSMAAMDPHEFVELAWGLADSKRPFVWVVRPNLIRGFESGALPDGVEDEVRGRGIVVAWAPQEEVLAHPAVGGFLTHNGWNSTVEAISEGVPMVCCPRHGDQFGNMRYVCDVWKVGTELVGEQLERGQVKAAIDRLFGTKEGEEIKERMKEFKIAAAKGIGIGVDVDETASPRTDLTDLVDLIKSF | 1.0
V116L: bx9 SEQ ID NO:1 mutant (protein, Zea mays) MASSRTGAGAGGRVVVFPFPFQGHFNPVMRLARALHARGLAITVFHSGALDPADYPADYRFVPVTVEADPKLLASEDIAAIVTTLNASCDAPFRARLSALLAAEGRDSVRCVFTDLSWNAVLTASSDLGVPALGMMTASAASLRDYMAYRTLIDKGYLPVKEERKEDPVPELPPYLVKDLLRVDTSDLEEFAELLARTVTAARRASGLIFNTFPLIETDTLAEIHKALSVPVFAVAPLNKLVPTATASLHGVVQADRGCLQWLDTQQPGSVLYVSFGSMAAMDPHEFVELAWGLADSKRPFVWVVRPNLIRGFESGALPDGVEDEVRGRGIVVAWAPQEEVLAHPAVGGFLTHNGWNSTVEAISEGVPMVCCPRHGDQFGNMRYVCDVWKVGTELVGEQLERGQVKAAIDRLFGTKEGEEIKERMKEFKIAAAKGIGIGVDVDETASPRTDLTDLVDLIKSF | L,I(1.0)
A79N: bx9 SEQ ID NO:1 mutant (protein, Zea mays) MASSRTGAGAGGRVVVFPFPFQGHFNPVMRLARALHARGLAITVFHSGALDPADYPADYRFVPVTVEADPKLLASEDINAIVTTLNASCDAPFRARLSALLAAEGRDSVRCVFTDVSWNAVLTASSDLGVPALGMMTASAASLRDYMAYRTLIDKGYLPVKEERKEDPVPELPPYLVKDLLRVDTSDLEEFAELLARTVTAARRASGLIFNTFPLIETDTLAEIHKALSVPVFAVAPLNKLVPTATASLHGVVQADRGCLQWLDTQQPGSVLYVSFGSMAAMDPHEFVELAWGLADSKRPFVWVVRPNLIRGFESGALPDGVEDEVRGRGIVVAWAPQEEVLAHPAVGGFLTHNGWNSTVEAISEGVPMVCCPRHGDQFGNMRYVCDVWKVGTELVGEQLERGQVKAAIDRLFGTKEGEEIKERMKEFKIAAAKGIGIGVDVDETASPRTDLTDLVDLIKSF | 1.0
